Experimental data as given in paper PMC5063126.
Ends that are not written are not given here. fluorophore = not defined here

Legend:
TMR-BID BH3 = assay: fluorescence polarisation; fluorescence anisotropy; Bcl-xL titrated into TMR-BID BH3 (5 nM) in sodium phosphate buffer (50 mM, pH 7.5) with sodium chloride (10 mM), 15 °C; fit to the Langmuir isotherm, apparent dissociation constant, at least three independent curves averaged
Bcl-xL = Bcl-xL (UniProt Q07817); assay: not stated; fluorescently labelled peptide with Bcl-xL; data in Table S4

Row | Kd (TMR-BID BH3) [nM] | Kd (Bcl-xL) [nM] | Molecule
1 | 27 | – | Bcl-xL (from UniProt Q07817-1 1-209) (domain or fragment)
2 | – | 46 | DC(fluorophore)AEDIGVNIARHLAQVGDSIDRSI (reading uncertain; also: fluorophore not named) [LOV-BID peptide]
